T1: pSu9-DHFR (mouse DHFR fused to Neurospora crassa Su9 presequence) (Mus musculus, UniProt P00375 SEQ:1-259)
T1 chain: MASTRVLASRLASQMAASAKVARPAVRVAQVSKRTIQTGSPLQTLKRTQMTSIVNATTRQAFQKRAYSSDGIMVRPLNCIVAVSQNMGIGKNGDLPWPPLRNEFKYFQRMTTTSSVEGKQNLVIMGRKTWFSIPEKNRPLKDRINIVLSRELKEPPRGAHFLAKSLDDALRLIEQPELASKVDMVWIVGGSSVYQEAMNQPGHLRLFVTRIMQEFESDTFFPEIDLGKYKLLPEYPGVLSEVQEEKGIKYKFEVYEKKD


How the values were obtained:
pSu9-GFP = pSu9-GFP (UniProt P42212 SEQ:1-307); experiment: stated unable to interact with tRNAAla; no effect on import; settings: label: 32P-UTP; tRNA
[1] = target: T1, pSu9-DHFR (mouse DHFR fused to …); experiment: EMSA; shift increases with protein; legend names pSu9-DHFR, text says DHFR; 10 mM Tris pH 7.5, 50 mM NaCl, 1 mM MgCl2, 25 C; settings: label: 32P-UTP; tRNA
Experimental: The RNA-protein interaction was studied by means of the shift gel technique. The procedure used is the procedure No. TB110 of Promega, entitled <<gel shift assay system >>. The reaction is conducted in a 9 μL reaction volume comprising: […] of protein, 2 μL of gel shift buffer 5× (20% (v/v) glycerol, 5 mM MgCl₂, 2.5 mM EDTA, 2.5 mM DTT, 250 mM NACl, 50 mM Tris-HCL pH 7.5). The medium is incubated for 10 minutes at room temperature. One μL of radiolabelled tRNA (about 10 fmol corresponding to 20,000 cpm) is then added and the whole is then incubated under mild stirring at 25° C. After migration, the medium is added with one μL of load buffer (250 mM Tris-HCl pH 7.5, 40% (v/v) glycerol). The gel is prepared from a solution of 4% acrylamide/N,N′-methylene bisacrylamide (19/1) in TBE 0.5× buffer (45 mM Tris 45, 1.25 mM EDTA pH 8.3, 45 mM boric acid). The polymerization of the gel is catalyzed by adding 0.04% (w/v) APS and 0.04% (v/v) TEMED. Before charging the samples, the gel is set to a voltage of 350 V for 10 mins. Migration is then carried out for 20 mins at 350 V in the TBE 0.5× buffer. The gel is dried and then exposed against a Phosphorimager plate (Fuji) or subject to autoradiography.
The nucleic acid substrate selected in this case corresponds to the cytosolic tRNAAla of Arabidopsis thaliana (SEQ ID NO: 4). […]

[2] = target: DHFR (mouse, recombinant) (Mus musculus, UniProt P00375 SEQ:4-190); experiment: Southwestern blot; 10 mM Tris pH 7.5, 5 mM Mg acetate, 2 mM DTT, 4 C; settings: tags: His tag; label: 5'-32P
Experimental: The DNA substrate selected in this case corresponds to an oligonucleotide (single strand DNA) corresponding to the sequence of cytosolic tRNAAla of A. thaliana (SEQ ID NO: 4). This chemically synthesized oligonucleotide (Sigma Aldrich) and labeled at 5′ was incubated with a membrane onto which the recombinant proteins DHFR and GFP were transferred. No interaction between GFP and the oligonucleotide was observed while a signal was obtained, reflecting an interaction between DHFR and the oligonucleotide.

Binder	binding result (pSu9-GFP)	binding result [1]	binding result [2]
cytosolic tRNAAla transcript (A. thaliana) (ssRNA) RNA: GGGGAUGUAGCUCAUAUGGUAGAGCGCUCGCUUUGCAUGCGAGAGGCACAGGGUUCGAUUCCCUGCAUCUCCACCA	no binding	binds	
tRNAAla-sequence DNA oligonucleotide (ssDNA) DNA: GGGGATGTAGCTCATATGGTAGAGCGCTCGCTTTGCATGCGAGAGGCACAGGGTTCGATTCCCTGCATCTCCACCA			binds

From patent publication US20120110693, “TARGETING NUCLEIC ACIDS IN MITOCHONDRIA” (published 2012)
